Test results as given in paper PMC9663165, “Human immunomodulatory ligand B7-1 mediates synaptic remodeling via the p75 neurotrophin receptor” (The Journal of Clinical Investigation, 2022).

T1: full-length human p75 neurotrophin receptor fused at the cytoplasmic C-terminus to GFP (human, UniProt P08138 29-427)
T1 construct: As query against the GFP-tagged library it carried the opposite colour tag (mCherry); kept as one molecule; also called p75^NTR; NGFR; source: HEK293 suspension cells, transiently transfected, on cells; not shown: GFP, C-terminal, kept
T1 sequence (looked up): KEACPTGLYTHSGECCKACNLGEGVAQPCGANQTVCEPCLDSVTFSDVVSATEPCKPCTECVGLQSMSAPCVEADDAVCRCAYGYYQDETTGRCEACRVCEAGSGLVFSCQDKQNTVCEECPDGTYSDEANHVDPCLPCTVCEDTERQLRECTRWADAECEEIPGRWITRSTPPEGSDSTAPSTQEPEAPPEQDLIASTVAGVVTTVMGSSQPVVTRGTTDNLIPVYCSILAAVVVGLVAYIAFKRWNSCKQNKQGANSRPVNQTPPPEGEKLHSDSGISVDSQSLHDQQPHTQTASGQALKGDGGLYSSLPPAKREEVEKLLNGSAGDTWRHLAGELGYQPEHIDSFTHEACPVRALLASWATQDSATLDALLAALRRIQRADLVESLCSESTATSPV


How the values were obtained:
[1] = target: T2, CD28-GFP (human, UniProt P10747 19-220); experiment: flow cytometry on cells; cell-cell conjugates: HEK293F cells expressing 92 B7-1–mCherry point mutants (IgV domain) against HEK293F cells expressing CTLA-4–GFP, CD28-GFP or p75NTR-GFP; percent of WT binding; conditions: partners not purified
T2 construct: human CD28, member of the human Ig superfamily library; source: HEK293F, transfected, on cells; not shown: GFP, C-terminal, kept

[2] = target: T1, full-length human p75 neurotrophin …; experiment: as above; conditions: partners not purified

| Binder | loss in binding relative to WT [1] [%] | loss in binding relative to WT [2] [%] |
| --- | --- | --- |
| hB7-1 E41A–mCherry (ligand, human, UniProt P33681 35-288, looked up, human B7-1 (CD80), point mutant in the IgV domain; source: HEK293F, transfected, on cells) VIHVTKAVKEVATLSCGHNVSVEELAQTRIYWQKEKKMVLTMMSGDMNIWPEYKNRTIFDITNNLSIVILALRPSDEGTYECVVLKYEKDAFKREHLAEVTLSVKADFPTPSISDFEIPTSNIRRIICSTSGGFPEPHLSWLENGEELNAINTTVSQDPETELYAVSSKLDFNMTTNHSFMCLIKYGHLRVNQTFNWNTTKQEHFPDNLLPSWAITLISVNGIFVICCLTYCFAPRCRERRRNERLRRESVRPV | > 25 | – |
| hB7-1 Y121D–mCherry (ligand, human, UniProt P33681 35-288, looked up, human B7-1 (CD80), point mutant in the IgV domain; source: HEK293F, transfected, on cells) VIHVTKEVKEVATLSCGHNVSVEELAQTRIYWQKEKKMVLTMMSGDMNIWPEYKNRTIFDITNNLSIVILALRPSDEGTYECVVLKDEKDAFKREHLAEVTLSVKADFPTPSISDFEIPTSNIRRIICSTSGGFPEPHLSWLENGEELNAINTTVSQDPETELYAVSSKLDFNMTTNHSFMCLIKYGHLRVNQTFNWNTTKQEHFPDNLLPSWAITLISVNGIFVICCLTYCFAPRCRERRRNERLRRESVRPV | – | > 25 |
| hB7-1 I36D–mCherry (ligand, human, UniProt P33681 35-288, looked up, human B7-1 (CD80), point mutant in the IgV domain; source: HEK293F, transfected, on cells) VDHVTKEVKEVATLSCGHNVSVEELAQTRIYWQKEKKMVLTMMSGDMNIWPEYKNRTIFDITNNLSIVILALRPSDEGTYECVVLKYEKDAFKREHLAEVTLSVKADFPTPSISDFEIPTSNIRRIICSTSGGFPEPHLSWLENGEELNAINTTVSQDPETELYAVSSKLDFNMTTNHSFMCLIKYGHLRVNQTFNWNTTKQEHFPDNLLPSWAITLISVNGIFVICCLTYCFAPRCRERRRNERLRRESVRPV | > 25 | > 25 |
| hB7-1 V45D–mCherry (ligand, human, UniProt P33681 35-288, looked up, human B7-1 (CD80), point mutant in the IgV domain; source: HEK293F, transfected, on cells) VIHVTKEVKEDATLSCGHNVSVEELAQTRIYWQKEKKMVLTMMSGDMNIWPEYKNRTIFDITNNLSIVILALRPSDEGTYECVVLKYEKDAFKREHLAEVTLSVKADFPTPSISDFEIPTSNIRRIICSTSGGFPEPHLSWLENGEELNAINTTVSQDPETELYAVSSKLDFNMTTNHSFMCLIKYGHLRVNQTFNWNTTKQEHFPDNLLPSWAITLISVNGIFVICCLTYCFAPRCRERRRNERLRRESVRPV | > 25 | – |
| hB7-1 R63D–mCherry (ligand, human, UniProt P33681 35-288, looked up, human B7-1 (CD80), point mutant in the IgV domain; source: HEK293F, transfected, on cells) VIHVTKEVKEVATLSCGHNVSVEELAQTDIYWQKEKKMVLTMMSGDMNIWPEYKNRTIFDITNNLSIVILALRPSDEGTYECVVLKYEKDAFKREHLAEVTLSVKADFPTPSISDFEIPTSNIRRIICSTSGGFPEPHLSWLENGEELNAINTTVSQDPETELYAVSSKLDFNMTTNHSFMCLIKYGHLRVNQTFNWNTTKQEHFPDNLLPSWAITLISVNGIFVICCLTYCFAPRCRERRRNERLRRESVRPV | > 25 | – |
| hB7-1 E69A–mCherry (ligand, human, UniProt P33681 35-288, looked up, human B7-1 (CD80), point mutant in the IgV domain; source: HEK293F, transfected, on cells) VIHVTKEVKEVATLSCGHNVSVEELAQTRIYWQKAKKMVLTMMSGDMNIWPEYKNRTIFDITNNLSIVILALRPSDEGTYECVVLKYEKDAFKREHLAEVTLSVKADFPTPSISDFEIPTSNIRRIICSTSGGFPEPHLSWLENGEELNAINTTVSQDPETELYAVSSKLDFNMTTNHSFMCLIKYGHLRVNQTFNWNTTKQEHFPDNLLPSWAITLISVNGIFVICCLTYCFAPRCRERRRNERLRRESVRPV | > 25 | – |
| hB7-1 L131D–mCherry (ligand, human, UniProt P33681 35-288, looked up, human B7-1 (CD80), point mutant in the IgV domain; source: HEK293F, transfected, on cells) VIHVTKEVKEVATLSCGHNVSVEELAQTRIYWQKEKKMVLTMMSGDMNIWPEYKNRTIFDITNNLSIVILALRPSDEGTYECVVLKYEKDAFKREHDAEVTLSVKADFPTPSISDFEIPTSNIRRIICSTSGGFPEPHLSWLENGEELNAINTTVSQDPETELYAVSSKLDFNMTTNHSFMCLIKYGHLRVNQTFNWNTTKQEHFPDNLLPSWAITLISVNGIFVICCLTYCFAPRCRERRRNERLRRESVRPV | > 25 | – |
| hB7-1 K43D–mCherry (ligand, human, UniProt P33681 35-288, looked up, human B7-1 (CD80), point mutant in the IgV domain; source: HEK293F, transfected, on cells) VIHVTKEVDEVATLSCGHNVSVEELAQTRIYWQKEKKMVLTMMSGDMNIWPEYKNRTIFDITNNLSIVILALRPSDEGTYECVVLKYEKDAFKREHLAEVTLSVKADFPTPSISDFEIPTSNIRRIICSTSGGFPEPHLSWLENGEELNAINTTVSQDPETELYAVSSKLDFNMTTNHSFMCLIKYGHLRVNQTFNWNTTKQEHFPDNLLPSWAITLISVNGIFVICCLTYCFAPRCRERRRNERLRRESVRPV | > 25 | > 25 |
| hB7-1 K127D–mCherry (ligand, human, UniProt P33681 35-288, looked up, human B7-1 (CD80), point mutant in the IgV domain; source: HEK293F, transfected, on cells) VIHVTKEVKEVATLSCGHNVSVEELAQTRIYWQKEKKMVLTMMSGDMNIWPEYKNRTIFDITNNLSIVILALRPSDEGTYECVVLKYEKDAFDREHLAEVTLSVKADFPTPSISDFEIPTSNIRRIICSTSGGFPEPHLSWLENGEELNAINTTVSQDPETELYAVSSKLDFNMTTNHSFMCLIKYGHLRVNQTFNWNTTKQEHFPDNLLPSWAITLISVNGIFVICCLTYCFAPRCRERRRNERLRRESVRPV | > 25 | – |
| hB7-1 Y65A–mCherry (ligand, human, UniProt P33681 35-288, looked up, human B7-1 (CD80), point mutant in the IgV domain; source: HEK293F, transfected, on cells) VIHVTKEVKEVATLSCGHNVSVEELAQTRIAWQKEKKMVLTMMSGDMNIWPEYKNRTIFDITNNLSIVILALRPSDEGTYECVVLKYEKDAFKREHLAEVTLSVKADFPTPSISDFEIPTSNIRRIICSTSGGFPEPHLSWLENGEELNAINTTVSQDPETELYAVSSKLDFNMTTNHSFMCLIKYGHLRVNQTFNWNTTKQEHFPDNLLPSWAITLISVNGIFVICCLTYCFAPRCRERRRNERLRRESVRPV | > 25 | > 25 |
| hB7-1 I36A–mCherry (ligand, human, UniProt P33681 35-288, looked up, human B7-1 (CD80), point mutant in the IgV domain; source: HEK293F, transfected, on cells) VAHVTKEVKEVATLSCGHNVSVEELAQTRIYWQKEKKMVLTMMSGDMNIWPEYKNRTIFDITNNLSIVILALRPSDEGTYECVVLKYEKDAFKREHLAEVTLSVKADFPTPSISDFEIPTSNIRRIICSTSGGFPEPHLSWLENGEELNAINTTVSQDPETELYAVSSKLDFNMTTNHSFMCLIKYGHLRVNQTFNWNTTKQEHFPDNLLPSWAITLISVNGIFVICCLTYCFAPRCRERRRNERLRRESVRPV | > 25 | – |
| hB7-1 K40D–mCherry (ligand, human, UniProt P33681 35-288, looked up, human B7-1 (CD80), point mutant in the IgV domain; printed once as K40D and once as Y40D; also called Y40D; source: HEK293F, transfected, on cells) VIHVTDEVKEVATLSCGHNVSVEELAQTRIYWQKEKKMVLTMMSGDMNIWPEYKNRTIFDITNNLSIVILALRPSDEGTYECVVLKYEKDAFKREHLAEVTLSVKADFPTPSISDFEIPTSNIRRIICSTSGGFPEPHLSWLENGEELNAINTTVSQDPETELYAVSSKLDFNMTTNHSFMCLIKYGHLRVNQTFNWNTTKQEHFPDNLLPSWAITLISVNGIFVICCLTYCFAPRCRERRRNERLRRESVRPV | > 25 | > 25 |
| hB7-1 K120D–mCherry (ligand, human, UniProt P33681 35-288, looked up, human B7-1 (CD80), point mutant in the IgV domain; source: HEK293F, transfected, on cells) VIHVTKEVKEVATLSCGHNVSVEELAQTRIYWQKEKKMVLTMMSGDMNIWPEYKNRTIFDITNNLSIVILALRPSDEGTYECVVLDYEKDAFKREHLAEVTLSVKADFPTPSISDFEIPTSNIRRIICSTSGGFPEPHLSWLENGEELNAINTTVSQDPETELYAVSSKLDFNMTTNHSFMCLIKYGHLRVNQTFNWNTTKQEHFPDNLLPSWAITLISVNGIFVICCLTYCFAPRCRERRRNERLRRESVRPV | > 25 | – |
| hB7-1 S49A–mCherry (ligand, human, UniProt P33681 35-288, looked up, human B7-1 (CD80), point mutant in the IgV domain; source: HEK293F, transfected, on cells) VIHVTKEVKEVATLACGHNVSVEELAQTRIYWQKEKKMVLTMMSGDMNIWPEYKNRTIFDITNNLSIVILALRPSDEGTYECVVLKYEKDAFKREHLAEVTLSVKADFPTPSISDFEIPTSNIRRIICSTSGGFPEPHLSWLENGEELNAINTTVSQDPETELYAVSSKLDFNMTTNHSFMCLIKYGHLRVNQTFNWNTTKQEHFPDNLLPSWAITLISVNGIFVICCLTYCFAPRCRERRRNERLRRESVRPV | > 25 | > 25 |
| hB7-1 T39A–mCherry (ligand, human, UniProt P33681 35-288, looked up, human B7-1 (CD80), point mutant in the IgV domain; source: HEK293F, transfected, on cells) VIHVAKEVKEVATLSCGHNVSVEELAQTRIYWQKEKKMVLTMMSGDMNIWPEYKNRTIFDITNNLSIVILALRPSDEGTYECVVLKYEKDAFKREHLAEVTLSVKADFPTPSISDFEIPTSNIRRIICSTSGGFPEPHLSWLENGEELNAINTTVSQDPETELYAVSSKLDFNMTTNHSFMCLIKYGHLRVNQTFNWNTTKQEHFPDNLLPSWAITLISVNGIFVICCLTYCFAPRCRERRRNERLRRESVRPV | > 25 | > 25 |
| hB7-1 K139D–mCherry (ligand, human, UniProt P33681 35-288, looked up, human B7-1 (CD80), point mutant in the IgV domain; source: HEK293F, transfected, on cells) VIHVTKEVKEVATLSCGHNVSVEELAQTRIYWQKEKKMVLTMMSGDMNIWPEYKNRTIFDITNNLSIVILALRPSDEGTYECVVLKYEKDAFKREHLAEVTLSVDADFPTPSISDFEIPTSNIRRIICSTSGGFPEPHLSWLENGEELNAINTTVSQDPETELYAVSSKLDFNMTTNHSFMCLIKYGHLRVNQTFNWNTTKQEHFPDNLLPSWAITLISVNGIFVICCLTYCFAPRCRERRRNERLRRESVRPV | > 25 | – |
